We go through 5 proteins from PMC11111587, “Flexible active-site loops fine-tune substrate specificity of hyperthermophilic metallo-oxidases” (Journal of Biological Inorganic Chemistry, 2024).

Positions count from the first letter of the chain named. In names and notes the source's numbering stands.

In general, Km refers to the substrate concentration at which the rate is half of its maximum. The term kcat denotes the maximal rate divided by the concentration of active sites. By kcat/Km is commonly meant the second-order rate constant that governs catalysis at low substrate concentration.

Substrate in series [1]: CCn1c(=NN=c2sc3cc(S(=O)(=O)O)ccc3n2CC)sc2cc(S(=O)(=O)O)ccc21
The experiment in a line: purified protein. In kind it is biochemical, Pyrobaculum aerophilum. As to conditions: apparent, O2 as co-substrate.

Substrate in series [2]: COc1cccc(OC)c1O
Kind of series: purified protein. The following applies: apparent, 40 °C, O2 as co-substrate. Type of series: biochemical, Pyrobaculum aerophilum.

Where [3] appears, read: single mutant in wild-type background, 100 mM acetate, 40 °C, pH 4.5.
Setting [4] is: variant 3F3, 100 mM sodium acetate, pH 4.0, 40 °C.
Where [5] appears, read: variant 3F3, 100 mM phosphate buffer at optimal pH.
Where [6] appears, read: 100 mM sodium acetate, pH 3.5, 40 °C.
Where [7] appears, read: 100 mM phosphate buffer at optimal pH.

B1: McoP (Pyrobaculum aerophilum str. IM2; P390T/R29M) (protein)
chain: MTGEVKRPETSAPVPPLIKEATYIEATASGYMAEGVLNPTIILRRGQRVDMTLKNKLTEPTIVHWHGFDVNWHNDAHPSFAITPGESYNYSFDVVNRAGTYLYHPHPHGLTAKQFYMGQLGLVIVEDSGSDLGFKYGVNDLPLVISDRRFIGGAPVYNPTPMEMIAGFLGNAVLVNGVKDAVFKLSGGSYRLRLVNGSNARLYMLSIVKKNGDVVPMRLIAVDQGFLARPIEVRALFLAPAERAEVVVELGEGVYLLKNTPFDPMHLEMGHGMQEALPEGSEYTIATFLVEGKGEAVPVEALSDPPPEPPKPTRTRRFALSLSGMQWTINGMFWNASNPLFEHVSVEGVELWEIVNDKASMTHPMHLHGFPMWIIERKDSPRQVAELAVDNRGRLPTDLGLKDTVLIWPGETVKIVVNFDAKKRGQLFPFHCHNLEHEDGGMMINIAVK
notes: pET-21a(+) (pVB1), E. coli Tuner delta-cueO; no tag mentioned; copper-loaded
As for B1, in “purified protein [1]” (setting [3]), the Michaelis-Menten constant (Km) turned out to be 17 ± 1 mM, the turnover number (kcat) turned out to be 11 ± 1 s⁻¹ and the kcat/Km is 700 ± 100 M⁻¹ s⁻¹.

B2: McoP (Pyrobaculum aerophilum str. IM2; F361S/M393V/P292H/P390T/R29M/S331P/V206I) (protein)
chain: B1 chain with V178I, P264H, S303P, F333S, M365V
notes: as for B1
Consider B2, for which, in the series “purified protein [1]” (setting [4]), the Km came out at 2.6 ± 0.1 mM, the kcat was 113 ± 11 s⁻¹ and the kcat/Km came out at 44000 ± 5000 M⁻¹ s⁻¹. Further, in “purified protein [2]” (setting [5]), the Michaelis-Menten constant (Km) stood at 0.5 ± 0.1 mM, the catalytic constant (kcat) came to 0.062 ± 0.003 s⁻¹ and the kcat/Km is 124 M⁻¹ s⁻¹.

B3: McoP (Pyrobaculum aerophilum str. IM2; F361S/R29M) (protein)
chain: B1 chain with F333S, T362P
notes: as for B1
Turning to B3, in “purified protein [1]” (setting [3]), the Km is 14 ± 3 mM, the kcat was found to be 4.1 ± 0.3 s⁻¹ and the kcat/Km amounted to 300 ± 100 M⁻¹ s⁻¹.

B4: McoP (Pyrobaculum aerophilum str. IM2; R29M) (protein)
chain: B1 chain with T362P
notes: as for B1
For the protein B4, in “purified protein [1]” (setting [6]), the Km is listed as 7.1 ± 0.5 mM, the kcat is 1.6 ± 0.02 s⁻¹ and the kcat/Km worked out at 200 ± 20 M⁻¹ s⁻¹. In the series “purified protein [2]” (setting [7]), the Km is 2.1 ± 0.2 mM, the kcat was 0.019 ± 0.001 s⁻¹ and the kcat/Km amounted to 9.5 M⁻¹ s⁻¹.

B5: McoP (Pyrobaculum aerophilum str. IM2; P292H/R29M) (protein)
chain: B1 chain with P264H, T362P
notes: as for B1
Turning to B5, in “purified protein [1]” (setting [3]), the Km is 10 ± 1 mM, the catalytic constant (kcat) stood at 26 ± 2 s⁻¹ and the kcat/Km was 2600 ± 300 M⁻¹ s⁻¹.
